Experimental findings from the supplement of paper PMC9170038 are described below.

This data set deals with MS2 coat protein. Kind of data set: apparent KD of MS2 coat protein; higher = weaker reporter binding. The conditions noted are these: Eterna round: R107. Summed up: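 With or without constant ligand, designed RNA switches in 100 mM Tris-HCl pH 7.5, 80 mM KCl and 4 mM MgCl2 were titrated with SNAP-549-labelled MS2 coat protein. Concentrations went up in twofold steps from 0.7 or 1.5 nM to 3 µM. The switches had been transcribed on-chip from Illumina sequencing clusters, and apparent KD is the per-design median of normalised cluster binding-curve fits.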

[1] abbreviates: input ligand: theophylline 20 uM.
[2] abbreviates: input ligand: theophylline 2 mM.
Where [3] appears, read: input ligand: tryptophan 2.4 mM.

Turning to “AAUGUAUGCCACAUGAGGAUCACCCAUGUGCGAGGACCGGUACGGCCGCCACUCGGUCGGUGGUUAAUGAAGAUAUACAAUAAUG [XTryp A #12]”, the “apparent KD of MS2 coat protein” value is, setting by setting: (input ligand: arginine 13.2 mM) 10.6 nM; under setting [1], 20.9 nM; under setting [2], 13.5 nM.
With “ACCGCAUCCGUAUAGGAUGCGGCCCAUGAAGGAGCGUGGGAAACCACAGGUAGGUCGCAUGGACAUGAGGAUCACCCAUGUUAUU [Inception]”, the “apparent KD of MS2 coat protein” value by setting is: (input ligand: arginine 13.2 mM) 43.7 nM; (input ligand: none) 59.8 nM; under setting [1], 79.3 nM; under setting [2], 62.7 nM; under setting [3], 48.3 nM.
Consider “AAUACAGCUACGGCCGCCACUUUAACUUGGUAUGGGUCCUUCACAAACAUGAGGAUCACCCAUGUAAGGACCGGGUAGCCUUGUU [theeternabot_exclusion_MS2_Trp_B_35]”, for which the “apparent KD of MS2 coat protein” value was found to be 21.6 nM (input ligand: arginine 13.2 mM), 28.4 nM under setting [1] and 24 nM under setting [2].
For “UUCGUUGGCGAUCUGGGUUUACCAGAUCGGCGAGGACCGGUACGGCCGCCACUCGUGUUUUCUUUACAUGAGGAUCACCCAUGUU [SSTA #3]” the same measures were 16.9 nM, 25.3 nM and 25.5 nM.
Regarding “AUAAAUAUAACCGAUACCAGCCUUAUACAUGAGGAUCACCCAUGUUAUGCUUCCUUUCUUGGCCCUUGGCAGCGGAAAUGGGUAA [SSTheo B #13]”, the “apparent KD of MS2 coat protein” value by setting is: (input ligand: arginine 13.2 mM) 36.2 nM; under setting [1], 48.4 nM; under setting [3], 44.8 nM.
As for “GCAACAUGAGGAUCACCCAUGUUUACUGAAGGAGCGAGACAGAACUCAGGUAGGUCGCAGACGGCGGAAUCGCCGACGACAUGGG [Exclusion Arginine A GF24]”, the “apparent KD of MS2 coat protein” value was 19.6 nM (input ligand: arginine 13.2 mM); 22.4 nM (input ligand: none); 33.5 nM under setting [1]; 27.9 nM under setting [2]; 21.6 nM under setting [3].
For “ACAUGAGGAUCACCCAUGUAAUAAUCAGAAGGAGCGUGGAAUAACACAGGUAGGUCGCUGAUGUUUGGUUAAAUGUAAUCGUGUA [JR_SSArginiA_Sub001]”, in that order: 13 nM, 13.5 nM, 18.1 nM, 17.6 nM and 17.1 nM.
“ACAUGAGGAUCACCCAUGUCUGCCUCGGAUACCAGCGGAAGAAAACGCCCUUGGCAGCCGAACAUGAGGAUCACCCAUGUAGGCU [Same State Theophylline A GF30]”: the “apparent KD of MS2 coat protein” value reads like this: (input ligand: arginine 13.2 mM) 28.8 nM; under setting [1], 55.1 nM; under setting [3], 45.2 nM.
On to “GCAUCCUAGUCGGCCGCCACUGGGUGUACCCAGUGCUGGUACAAACAUGAGGAUCACCCAUGUACCAGGACCGGGACUAGGAUGC [(Trp1)-(MT2)''-(T1)'-(MT2)'-(Ms2)-(Trp2)_Design4]”, for which the “apparent KD of MS2 coat protein” value was found to be 10.8 nM (input ligand: arginine 13.2 mM); 15.6 nM (input ligand: none); 21.2 nM under setting [1]; 16.7 nM under setting [2]; 13.8 nM under setting [3].
For “CGGCCCUCACCUGAGGAUCACCCAGGUGAUACCAGCCUGGAAACAGGCCCUUGGCAGCACCAGGUCAUCAAAGAUGACCAAGCCG [TheoAX 23 #SwitchBubble]” the same measures were 9.35 nM, 10.5 nM, 15.2 nM, 128 nM and 10.9 nM.
As to “CAUUAAGUAACUGAUACCAGUGUACUGACAUGAGGAUCACCCAUGUUGGGUUUUGUUGUACACCCUUGGCAGCAGAAUCUUAAUG [AstrosExyTheB#3]”, the “apparent KD of MS2 coat protein” value turned out to be 44.7 nM (input ligand: arginine 13.2 mM), 70.2 nM under setting [1] and 62.2 nM under setting [3].
“UUAUGCAGGUCGGCCGCCACUACACACAUGAGGAUCACCCAUGUAGUUACUGGGUGAAGUGGCAGUAGGACCGGGACCCGCACAC [Brourdmod22]”: the “apparent KD of MS2 coat protein” value (input ligand: arginine 13.2 mM) came to 226 nM; the “apparent KD of MS2 coat protein” value (input ligand: none) is 485 nM; the “apparent KD of MS2 coat protein” value under setting [1] was 561 nM; the “apparent KD of MS2 coat protein” value under setting [2] was 715 nM; the “apparent KD of MS2 coat protein” value under setting [3] was 258 nM.
For “GCAUCCUAGUCGGCCGCCACUGCAACAUGAGGAUCACCCAUGUACUGCACAUGGGAAUGCAGUAGCAGGACCGGGACUAGGAUGC [(T1)-(M1)-(M2)-(T)''-(M)'-(T)'-(T2)_Design2_2/18/17]”, in that order: 109 nM, 294 nM, 268 nM, 249 nM and 48.4 nM.
For “AAAAGUAGGUCCAAUAAAACUACAUGUGAAGGAGCGCGCGAAAGCGCAGGUAGGUCGCACAUGAGGAUCACCCAUGUCCUACAAA [MAT - Exclusion Arginine A - Mod of Eli - D6]” the same measures were 39.8 nM, 47.3 nM, 77.2 nM, 65.7 nM and 39.8 nM.
For “UUAGAUAUGACAGAUACCAGCGUGUUGUAGAACAUGAGGAUCACCCAUGUAGUGAUCGAGCGCCCUUGGCAGCUGGUGUGUUUGG [7.S]”, the “apparent KD of MS2 coat protein” value by setting is: (input ligand: arginine 13.2 mM) 163 nM; under setting [1], 303 nM; under setting [3], 319 nM.
“GCUGUACCAUGAAGGAGCGUCACGGAGUGCGAAUACACAUGAGGAUCACCCAUGUUUUUAUGGCAGGUAGGUCGCAUGGUACAGC [#02 Same State - Arginine B]”: the “apparent KD of MS2 coat protein” value came to 22.8 nM (input ligand: arginine 13.2 mM); 22.3 nM (input ligand: none); 33.3 nM under setting [1]; 28.4 nM under setting [2]; 22.9 nM under setting [3].
Regarding “AUAUAUACAUGAGGAUCACCCAUGUUAUUACGAGGACCGGUACGGCCGCCACUCGAUAGAGUAGAAGUAAAUUUUAAUUCAUGUA [JR_SSTryptoA_Sub007]”, the “apparent KD of MS2 coat protein” value (input ligand: arginine 13.2 mM) was 14.6 nM, the “apparent KD of MS2 coat protein” value under setting [1] came to 15.7 nM and the “apparent KD of MS2 coat protein” value under setting [2] was found to be 14.4 nM.
As for “AAUAAUAAGGCGGCCGCCACUACACAUGAGGAUCACCCAUGUCUCGCGGGCUUGCGUUGGGAAAGUAGGACCGGGCCAAUAAUAA [Exclusion - Tryptophan B (Freestyle 9)]”, the “apparent KD of MS2 coat protein” value reads like this: (input ligand: arginine 13.2 mM) 15.3 nM; (input ligand: none) 21.5 nM; under setting [1], 26 nM; under setting [2], 27.3 nM; under setting [3], 15.7 nM.
“GAUAGUUGAAGGGAUACCAGCCUGGACAUGAGGAUCACCCAUGUAGCGUGUUUGAAACUGGGCCCUUGGCAGCCCAUAUUGUGUA [Same State - Theophylline B / A]”: the “apparent KD of MS2 coat protein” value by setting is: (input ligand: arginine 13.2 mM) 16.3 nM; under setting [1], 17.6 nM; under setting [3], 15.2 nM.
For “AUCGUACCUGAGGAUACCAGCAUGUGAUCAUAACAUGAGGAUCACCCAUGUAAUCAGUGAUGCCCUUGGCAGCUUAGUCGAUACA [Same State - Theophylline B (Freestyle 7)]” the same measures were 58.7 nM, 101 nM and 58.3 nM.
With “UAUAUAGAUGGACGUCAUCUAGAUGCAGAAGGAGCGUAGGAAACUACAGGUAGGUCGCUGAGGUACAUGAGGAUCACCCAUGUAG [SSArg A #21 Slice of Pi]”, the “apparent KD of MS2 coat protein” value by setting is: (input ligand: arginine 13.2 mM) 22.7 nM; (input ligand: none) 18.9 nM; under setting [1], 28.8 nM; under setting [2], 27 nM; under setting [3], 21.5 nM.
For “CGGGUUAGGGCGGCCGCCACUGUGGCUACGGUACAUGAGGAUCACCCAUGUUUGUGGUUGAUCUACAGGACCGGGCCCUGACACG [Geusrean]”, in that order: 440 nM, 102 nM, 865 nM, 2560 nM and 203 nM.
For “AUAACAUGAGGAUCACCCAUGUAAGCUGAAGGAGCGCUGGAAACAGCAGGUAGGUCGCAGCGGCGACCUUCCUCAUGAAGGUCGC [(M1)-(M2)-(Arg1)-(Arg2)-(A)'-(M)'-(A)''_Design5]”, in that order: 19.2 nM, 14.2 nM, 25.6 nM, 17 nM and 18.5 nM.
For “GAUAUAACAAAAGUUGUAUCAGUGGGUGAACGAGGACCGGUACGGCCGCCACUCGGACAUGAGGAUCACCCAUGUCCAUGUGAAA [AstrosExyTryA#18]”, in that order: 11.6 nM, 14.7 nM, 23.1 nM, 19.8 nM and 44.3 nM.
Regarding “CACGGACGAGUGGAUCACCCUUGUAAUAACCGAGGACCGGUACGGCCGCCACUCGAAAACCGUGACCUGUACGAAAAGUGCAGGA”, the “apparent KD of MS2 coat protein” value by setting is: (input ligand: arginine 13.2 mM) 14.2 nM; (input ligand: none) 26.5 nM; under setting [1], 148 nM; under setting [2], 466 nM; under setting [3], 195 nM.
For the sequence “GAGGACAUGAGGAUCACCCAUGUAAAUGAUACCAGUUGAGAGAGAGGCCCUUGGCAGCGUAAACAUGACAGCGAGCGAGAGUGCG [ss-theoA-0]”, the “apparent KD of MS2 coat protein” value was found to be 16.3 nM (input ligand: arginine 13.2 mM); 13.1 nM (input ligand: none); 19.2 nM under setting [1]; 15.3 nM under setting [2]; 14.6 nM under setting [3].
For “UUUUACAUGAGGAUCACCCAUGUGCGGCGCCGAGGACCGGUACGGCCGCCACUCGCAUGGGCAUGCCGCGAUAUCAUUCCUGAAC [theeternabot_sameState_MS2_Trp_A_43]”, the “apparent KD of MS2 coat protein” value (input ligand: arginine 13.2 mM) turned out to be 53.6 nM, the “apparent KD of MS2 coat protein” value under setting [1] came to 249 nM and the “apparent KD of MS2 coat protein” value under setting [2] was 306 nM.
